Where “and” joins values, the source holds several entries; their conditions need not be identical. Equal entries are not always repeated.
Target: the molecule itself
Experiment: native MS

B1: C. elegans MORC-1 (8x-His-MBP-CeMORC) (natural protein, UniProt Q23243 1-845, looked up)
chain: MPNDTNGDDYKKLEKASVNLNFLKSNSHTHIGPLSAIAELVDNAYDADARDLHIDFLDINNEQFLELRDDGLGMAREEALHAITFGHSAKCSYKIGRYGNGLKSGAFHLGRELLLVTKKDGIITALLISHRFHEDQGLTNSVFVPCPSFDLDGIPICQTESEKDRFNLEMKIIGKYAPLGSRTLAELADKITGSTGTIIIIGNLRRSVTGELAINTTKDPTDIIVDSGEENKPWRESLRKYLEFIYLKPRMRIHVRGEQVLPKRISENWIAKKQQLISGDQFTAAYNKILDEKNETVKKCEEEKALVMSEIGGTNYTSVRREDRANQKSLRLRVDTSQKNLDSAIADRDAFKKEGKSEKSFHLNMGIETKDRSNNGIHFYINNRLILWGNKEAKFFSKFANSIGISMFLSLDYSLFSAAQNKQGFDHVKDFQVLVRKCNDALRDYSMYLEKSWIPTHLKNTWNVRIYEGDDVWAVLWGVYGYNNTTSTTCVQTHDSARDQVMWTTCGIWKLCQMCRTWIKASRPNEIVGSNDDFFCCENVNHHGCRTIVAEDNDFSKLPEKYDHILPQKRLTNSAPSSSDSQNSIRSASSCSSSSRLLNVAKIESHERIHSSTGGHRLGESFSTTSVKMEPIPNNAHDSHIAEVQRRHSTGRAISPAVSEISRRAGTAPSSQLDMIMGEESDESQEALTIRAPRQRAKRPIERVSRRNRRDQSDDDSDSENEERYATAPKKSKVKGKAVVRAPKMTREKWLEEMLNQFLTAHGEQPLPKNGQRDFDPTNIVEQTSRRNFKNNQRIVDAQQAIMRQIGSVLDHLKRNPTHNFKIPASGTVEEKLKNIEHQIKGKKK
- stoichiometry N: 2 and 3 and 4

Source: article PMC6814019 (Molecular cell, 2019)
